For 116 sequences, protein stability index results are on record in the supplement of paper PMC10724198.

± gives the standard deviation of the averaged measurements.
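Note: PSI is a weighted mean of sequencing reads over stability bins, variants kept only with over 10 reads, mCherry proximal and sfGFP distal, peptide attached via GGGS linker.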

The data set concerns Saccharomyces cerevisiae. The experiment in a line: protein stability index of tFT-peptide fusion (C-terminal peptide) (PSI (0-1 scale)); higher = more stable (slower turnover). The conditions noted are these: genetic background: wild type; temperature: 30 C.
Sequence HAQTNSNSQLLL showed a protein stability index of 0.677 ± 0.0076. As to HDDQIRASQNKL, the protein stability index amounted to 0.747 ± 0.026. HDLVRECVGPVH showed a protein stability index of 0.602 ± 0.024. HDVGEYVKKNRF had a protein stability index of 0.653 ± 0.011. For HEGAISLCRQTC, the protein stability index is 0.592 ± 0.058. The result for HEIRSQSFGLYV reads 0.687 ± 0.025. As for HETRGKTEQNWM, the figure is 0.645 ± 0.053; as for HFAAVFATSISG, 0.675 ± 0.02. HFCFKVFSVRAP: the protein stability index amounted to 0.627 ± 0.018. In turn, HFPFYPSAPPPF returned a protein stability index of 0.713 ± 0.056. HFPTTSITPIYC came in with a protein stability index of 0.601 ± 0.019. For HFSDLIRFFFFA, the protein stability index amounted to 0.579 ± 0.064. Consider HGCRLCFISSWL, for which the protein stability index stood at 0.663 ± 0.0057. Take HGERMRKSPREE: the protein stability index was found to be 0.672 ± 0.11. HGGSFSAFWYLL returned a protein stability index of 0.676 ± 0.027.

Consider HGGTGDPAGIES, for which the protein stability index stood at 0.694 ± 0.013. Regarding HGTRPFLAPMTP, the protein stability index is 0.672 ± 0.0092.

For the sequence HGVSERPSISEY, the protein stability index is 0.6797 ± 0.0066. HGVTPFFSSSPR registered a protein stability index of 0.632 ± 0.012. Sequence HGVVGWKVNVGG showed a protein stability index of 0.695 ± 0.018. In turn, HHIAYTALSVWS came in with a protein stability index of 0.663 ± 0.011. HHVDLHLSLPSP returned a protein stability index of 0.649 ± 0.032.

In turn, HILESKKAGPGD came in with a protein stability index of 0.635 ± 0.053. As for HILSPPPRPPLV, the figure is 0.719 ± 0.02; as for HIPAFLSRFIHG, 0.685 ± 0.038. HISACKFPARTA showed a protein stability index of 0.692 ± 0.057. For the sequence HKGRVRACVFGV, the protein stability index was 0.666 ± 0.017. In the case of HKKRPKIRSNEY, the protein stability index is 0.622 ± 0.026.

Regarding HKLYATANHSPM, the protein stability index stood at 0.672 ± 0.1.

Consider HLFNLVRIRTDL, for which the protein stability index was determined as 0.703 ± 0.049. Take HLGTLYSSPLYR: the protein stability index came to 0.66289 ± 0.00054. The result for HLHAPSPPTLTL reads 0.682 ± 0.013; that for HLIQPDPRASNN, 0.751 ± 0.098; that for HLKRFLQVHARL, 0.82 ± 0.075. In turn, HLLRSDPAWFSG gave a protein stability index of 0.705 ± 0.009. As for HLPPPPTLPPFP, the figure is 0.6905 ± 0.0068. For HLSDAGSPDGAN, the protein stability index turned out to be 0.628 ± 0.063. In turn, HLSLFHIALPPP came in with a protein stability index of 0.6888 ± 0.0053.

HLTIVNYIWEIL returned a protein stability index of 0.549 ± 0.0059. HLVYRRGLEVTF displayed a protein stability index of 0.615 ± 0.061.

HMLRLIDFQSIV registered a protein stability index of 0.685 ± 0.042. In the case of HPAPGSPPAAHL, the protein stability index came to 0.734 ± 0.073. As for HPASPPTPPPLP, the protein stability index amounted to 0.663 ± 0.014. As to HPFARSLRSQIT, the protein stability index was determined as 0.734 ± 0.043.

HPGVPGSPFLSC showed a protein stability index of 0.714 ± 0.041. HPHAIDPKIESI came in with a protein stability index of 0.693 ± 0.035. HPMVFRLAAPRL returned a protein stability index of 0.779 ± 0.18. Consider HPPHFPTPFFSP, for which the protein stability index amounted to 0.702 ± 0.036. The sequence HPPLRPPLGSRF yielded a protein stability index of 0.868 ± 0.045.

The sequence HPPLTPLRANLP gave a protein stability index of 0.74 ± 0.039.

Sequence HPPRVLHGVPSG registered a protein stability index of 0.629 ± 0.075. Sequence HPPSSLLSPPSP returned a protein stability index of 0.702 ± 0.042. The result for HPRSAYSLAASL reads 0.6633 ± 0.00083; that for HPSAALLSSCYK, 0.677 ± 0.047; that for HPSPFTPPTNPY, 0.733 ± 0.06. As for HPSPPAPAPLYP, the figure is 0.667 ± 0.11. On to HPSRPPRASPPS, for which the protein stability index worked out at 0.693 ± 0.03. Sequence HPVSVKPSESSR had a protein stability index of 0.668 ± 0.073. For HQRGGPLPSSRR, the protein stability index is 0.739 ± 0.12. The result for HQSISLSGAMLT reads 0.65 ± 0.0088. The result for HQVPSPPPPGPL reads 0.707 ± 0.2; that for HQYSRHASIRTL, 0.623 ± 0.06; that for HRCRVGGSRFEK, 0.671 ± 0.036. As for HRLGNRGGRTLG, the figure is 0.6512 ± 0.0057; as for HRPPATFPVAHP, 0.735 ± 0.042; as for HRPPATPADPCS, 0.684 ± 0.019. The sequence HRPSPSPSPPLP yielded a protein stability index of 0.752 ± 0.056.

In turn, HRPTRLIKKNLA showed a protein stability index of 0.732 ± 0.033. Sequence HRRMGVGGCLEE returned a protein stability index of 0.682 ± 0.046.

Take HRVPRLRGQNPP: the protein stability index came out at 0.635 ± 0.0073. As for HRVVGVTLSVPS, the figure is 0.71 ± 0.071; as for HSALLRSASLSF, 0.705 ± 0.022. As for HSAPDLPPLPRV, the protein stability index worked out at 0.711 ± 0.02. As for HSCSRPLTPPPF, the figure is 0.72 ± 0.028; as for HSGGRVYSYACI, 0.6851 ± 0.0017; as for HSIPWTRTRPGC, 0.687 ± 0.016. The sequence HSLLPSYPFLSP had a protein stability index of 0.715 ± 0.076. As for HSPHLLSFFSPM, the protein stability index is 0.71 ± 0.076. As for HSPSSLPRLRPQ, the figure is 0.621 ± 0.044; as for HSRPPPSPPDPA, 0.603 ± 0.033. As for HSRTLTQKKTNN, the protein stability index amounted to 0.715 ± 0.038. Take HSSHPRPHRTLI: the protein stability index stood at 0.661 ± 0.012. As for HSWSLLFSPSFP, the figure is 0.658 ± 0.082. In turn, HTAYPPPHRTPP gave a protein stability index of 0.629 ± 0.11.

In turn, HTEYQGAGIPDE had a protein stability index of 0.752 ± 0.037.

As for HTFSRLHSLPIR, the protein stability index turned out to be 0.693 ± 0.0082.

Sequence HTNKNTTIQNKK displayed a protein stability index of 0.702 ± 0.11. The result for HTRPTALLPLSR reads 0.701 ± 0.014; that for HTSKFKKQRKKR, 0.7975 ± 0.0022. As for HTWALERVCSLD, the protein stability index turned out to be 0.687 ± 0.066. HTYQAAFRSHAI registered a protein stability index of 0.6544 ± 0.00072. The result for HVKLLSSNGPLV reads 0.671 ± 0.031; that for HVLRVWKMCVLE, 0.586 ± 0.033; that for HVTFPLRRTFRR, 0.697 ± 0.013.

HWRRGGRRGGDR showed a protein stability index of 0.703 ± 0.1. Turning to HYPGSGAVEQHE, the protein stability index stood at 0.599 ± 0.016.

For HYSPLPSLPPLP, the protein stability index amounted to 0.684 ± 0.077.

Consider IADRLAAIPMRY, for which the protein stability index amounted to 0.669 ± 0.011. As to IARTGLGIIIKI, the protein stability index amounted to 0.663 ± 0.054.

IASSRPHSNQRE: the protein stability index came out at 0.692 ± 0.021. The sequence ICRGLTVPGVAI came in with a protein stability index of 0.612 ± 0.0095.

ICWSTALDASFG gave a protein stability index of 0.725 ± 0.024. Turning to IDLLTRKVDLFN, the protein stability index is 0.66 ± 0.055. The result for IDLTLLRHPAYL reads 0.732 ± 0.05; that for IDSWWLPSDLKV, 0.835 ± 0.017. Consider IDVLTGTDAGPT, for which the protein stability index turned out to be 0.6278 ± 0.004. In the case of IECACVPLVAGG, the protein stability index came out at 0.656 ± 0.024.

Regarding IECLRVVRSRCG, the protein stability index amounted to 0.6724 ± 0.0023. In turn, IEKKNKTKKKRI came in with a protein stability index of 0.748 ± 0.13.

Consider IERGLEGHLGHC, for which the protein stability index stood at 0.668 ± 0.035. IESRGCSMQKRL had a protein stability index of 0.7489 ± 0.0039. Consider IESVGRTTRQGE, for which the protein stability index was 0.748 ± 0.11. IFRERWGCFEAI showed a protein stability index of 0.763 ± 0.13.

IFRLFAFHENRG came in with a protein stability index of 0.679 ± 0.051. As for IFSIRCFHSDFV, the figure is 0.6486 ± 0.0028; as for IFVCRCFGFFGG, 0.681 ± 0.04.
